Experimental data as given in PMC9947222.

How the values were obtained:
[1] = tested on: anti-NP mAb clone B1-8 (Abcam ab206523) (mouse); test: FIDA; conditions: binding via NIP hapten; in solution; LNA/2'-OMe as N0; one 5' amino-C6 NIP hapten (carrier strand not stated); BLI: PBS, 0.02% Tween-20, 0.1% BSA, pH 7.4, HJ 0.2-20 nM, temperature not stated; all positive binding is through the NP/NIP hapten, not the nucleic acid
[2] = target: mouse IgG2a (mIgG2a) antibody (BALB/c IgG2a,κ Purified Mouse Anti-Mouse I-A[b], Clone AF6-120.1), conjugated to the S1-handle DNA with P3 docking site (mouse); test: DNA-PAINT super-resolution microscopy on DNA origami (labeling efficiency); mIgG2a-DNA conjugate (60 nM) hybridised to DNA origami held by neutravidin on a biotin-PEG surface; κLC-Nb-7xR3 added in 0.5x buffer C + 1.5% BSA, >45 min at RT, excess washed off; two rounds of Exchange-PAINT (R3, P3); R3 clusters <19 nm from P3 clusters counted

Row | Fab labeling density [2] [%] | nanobodies bound per BCR (average) [2] | Substance | Kd [1] [nM]
1 |  |  | CCGTCCTGAGCC / CACAGTGGACGG / GGCTCACCGATC / GATCGGACTGTG [HJ-1xNIP] | 20
2 | 80 | 1.5 | anti-mouse kappa light chain nanobody (κLC-Nb) with Ser87 replaced by Cys87, conjugated to the DNA-PAINT docking strand 7xR3 (VHH) | 
